In PMC3213119, “Towards a Structural Comprehension of Bacterial Type VI Secretion Systems: Characterization of the TssJ-TssM Complex of an Escherichia coli Pathovar” (PLoS Pathogens, 2011):

Experiments:
[1] = biological target: T1, TssJ N-terminal thioredoxine fusion (enteroaggregative Escherichia coli …); assay: SPR; Biacore X100; Trx-TssJ covalently coupled to a CM5 chip (600 RU), TssM construct injected (Trx-TssM-ekto at 10-0.312 µM); 10 mM Tris pH 8, 150 mM NaCl, 0.005% Tween; Kd from equilibrium levels, 1:1 model; details: both partners purified
T1 construct: TssJ of enteroaggregative Escherichia coli strain 17-2; residues 2-155 of the processed lipoprotein = residues 25-178 of the full-length protein; pETG-20A construct: hexahistidine tagged thioredoxin, TEV site, TssJ; used uncleaved on the CM5 chip; also called Trx-TssJ; source: E. coli T7 Iq pLysS, purified; not shown: thioredoxin, N-terminal, kept; His6, N-terminal, kept

[2] = biological target: T2, TssJ (enteroaggregative E. coli Sci1 T6SS), residues 2-155 of the processed lipoprotein, fusion and tag … (enteroaggregative Escherichia coli …); assay: SPR; Biacore X100; Trx-TssM-ekto covalently coupled to a CM5 chip (3000 RU), TssJ injected (40-0.312 µM); 10 mM Tris pH 8, 150 mM NaCl, 0.005% Tween; Kd from equilibrium levels, 1:1 model; details: both partners purified
T2 construct: TssJ outer membrane lipoprotein of the sci1 cluster, enteroaggregative Escherichia coli strain 17-2; residues 2-155 of the processed lipoprotein = residues 25-178 of the full-length protein; a Gly left at position 1 may stem from the TEV site (surmised); also called native TssJ; SciN; not shown: thioredoxin, N-terminal, cleaved; His6, N-terminal, cleaved

B1: TssM-ekto N-terminal thioredoxine fusion (domain or fragment)
chain: DYGSLTAAGLGQEWYGFGQTVFVRPMEQAWQQVLTPAAESLNARWRTAVVDGWNNAFSGRYPFKNVSSDASLPLLAKYLNTDTGRIARFLQNNLSGVLHREGSRWVPDTINTRGLTFNPAFLKAINTLSEIADVAFTTGNAGLHFELRPGTAAGVMQTTLITDNQKLIYVNQMPVWKRFTWPADTEAPGASLSWVSTQAGTRQYADLPGSWGLIRLLEMARRKAAPGVASGWSLSWQAQDGRMLNYTLRTEAGEGPLVLLKLRNFVLPETVFELSGTSAFTGNDEDAGDTVEETD
Kd [1]: 2.1 µM | Kd [2]: 4 ± 0.5 µM
